This note sets out measurements from article PMC5577655.

This data set has as its system NCCCC[C@H](N)C(=O)O. Nature of the data set: purified protein.

The Km is the substrate concentration at which the rate is half of its maximum. With “lysyl-tRNA synthetase 1 (LdLysRS-1) (Leishmania donovani)”, the Michaelis-Menten constant (Km) is 111 ± 15 µM.
